Test results from article PMC4814101.

What was measured:
[1] = target: Bothropstoxin I (Bothrops jararacussu) (UniProt Q90249); experiment: SPR; Biacore T200; […]; 30 μL/min, 37°C; running buffer 0.1 M phosphate, 27 mM KCl, 1.37 M NaCl, pH 7.4; 1:1 Langmuir model
[2] = target: Bothropstoxin II (Bothrops jararacussu) (UniProt P45881); experiment: as above
Chain of UniProt P45881 (P45881 17-138): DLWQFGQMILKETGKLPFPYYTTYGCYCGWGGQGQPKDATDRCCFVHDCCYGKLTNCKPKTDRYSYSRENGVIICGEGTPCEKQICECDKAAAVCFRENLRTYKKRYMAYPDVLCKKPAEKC

Chain of UniProt Q90249 (Q90249 17-137): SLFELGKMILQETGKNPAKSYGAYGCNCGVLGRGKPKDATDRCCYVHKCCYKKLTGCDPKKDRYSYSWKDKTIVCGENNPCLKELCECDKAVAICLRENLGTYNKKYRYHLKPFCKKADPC

Substance | Kd [1] [nM] | koff [1] [s⁻¹] | kon [1] [M⁻¹ s⁻¹] | Kd [2] [nM] | koff [2] [s⁻¹] | kon [2] [M⁻¹ s⁻¹]
VHH KC329718 | 53.9 | 0.0346 | 642000 | 770 | 0.258 | 335000
VHH KF498607 | 629 | 0.162 | 257000 |  | 0.516 | 184000
VHH KF498608 | 668 | 0.119 | 179000 | 42.7 | 0.0302 | 
